1 molecule from paper PMC6109231 can be followed below.

In the assay the target is heat shock protein 60 (HSP60) (human (endogenous in HEK293T)), P10809. Put plainly: negative-stain EM, single-particle analysis; SEC fraction 4 (1.5 to 2 MDa) of HEK293T lysate, Superdex 200 in PBS pH 7.2 at 4°C; 2% uranyl acetate; raw micrographs, reference-free 2D class averages, 3D classification (RELION) and ab initio reconstruction (cryoSPARC); proteins identified by mass spectrometry of the fraction. Particulars: remark: other sources report otherwise.

B1: heat shock protein 60 (HSP60), P10809 27-573 (natural protein)
chain: AKDVKFGADARALMLQGVDLLADAVAVTMGPKGRTVIIEQSWGSPKVTKDGVTVAKSIDLKDKYKNIGAKLVQDVANNTNEEAGDGTTTATVLARSIAKEGFEKISKGANPVEIRRGVMLAVDAVIAELKKQSKPVTTPEEIAQVATISANGDKEIGNIISDAMKKVGRKGVITVKDGKTLNDELEIIEGMKFDRGYISPYFINTSKGQKCEFQDAYVLLSEKKISSIQSIVPALEIANAHRKPLVIIAEDVDGEALSTLVLNRLKVGLQVVAVKAPGFGDNRKNQLKDMAIATGGAVFGEEGLTLNLEDVQPHDLGKVGEVIVTKDDAMLLKGKGDKAQIEKRIQEIIEQLDVTTSEYEKEKLNERLAKLSDGVAVLKVGGTSDVEVNEKKDRVTDALNATRAAVEEGIVLGGGCALLRCIPALDSLTPANEDQKIGIEIIKRTLKIPAMTIAKNAGVEGSLIVEKIMQSSSEVGYDAMAGDFVNMVEKGIIDPTKVVRTALLDAAGVASLLTTAEVVVTEIPKEEKDPGMGAMGGMGGGMGGGMF
B1: the stoichiometry N is 7.
